According to patent US20240052052A1 (ANTENGENE BIOLOGICS, published 2024):
Substitutions are numbered along the chain they refer to.

T1: human CD24 (human, UniProt P25063 27-59, heavily glycosylated, GPI-anchored (as described in the background))
T1 construct: whole, on cells; Target of all cell-based FACS assays; also called hCD24; Cluster of differentiation 24
T1 chain (looked up): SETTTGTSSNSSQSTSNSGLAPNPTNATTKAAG

B1: SN3 (antibody, V domains shown)
VH: QVQLKESGPGLVAPSQSLSITCTVSGFSLTSYGVHWVRQPPGKGLEWLGVIWAGGSTNYNSALMSRLSISKDNSKSQVFLKMNSLQTDDTAMYYCAVYYGYLFFAYWGQGTLVTVSA
VL: ENVLTQSPAIMSASPGEKVTMTCSASSSVSYMHWYQQKSTTSPKLWIYDTSKLASGVPGRFSGSGSGNSYSLTISSMEAEDVATYYCFQGSGYPLTFGGGTKLEIK
B2: 73H5-1G2 (antibody, V domains shown)
VH: QVQLKQSGPGLVQPSQSLSITCTVSGFSLTNYGVHWIRQSPGKGLEWLGVIWRGGSTDYNAAFMSRLSITKDNSKSQVFFQMNSLQAADTAIYYCANNYGYDCFAYWGQGTLVTVSA
VL: DVQITQSPSYLAASPGETITINCRASKSIIKYLAWYQEKPGKTNKLLIYSGSTLQSGIPSRFSGSGSGTDFTLTITSLEPEDFAMYYCQQHNEYPLTFGAGTRLELK
notes: mouse monoclonal antibody
B3: 110D4G4 (antibody, V domains shown)
VH: EVQLQQSGPGLVKPGASVKISCRASGYLFTGYYMNWVKQSPEKSLEWIGEINPNTGDPRYDQKFKAKATLTVDRSSSTAYMHLKSLTSEDSAVYFCARRDYGTSLDYWGQGTTLTVTS
VL: B2 VL with I30S, T69S, T76S, R103K
notes: mouse monoclonal antibody; also called mAb-110D4G4
B4: 81A1F8-VH-11/VL-21 (antibody, V domains shown)
VH: QVQLVQSGAEVKKPGASVKVSCKASGYLFTGYYMNWVRQAPGQGLEWMGEINPNTGDTNNNQKFKARVTMTVDRSISTAYMELSRLRSDDTAVYYCVRRDYGTSLDYWGQGTLVTVSS
VL: DVQITQSPSFLSASVGDRVTITCRASKSINKYLAWYQQKPGKAPKLLIHSGSTLQSGVPSRFSGSRSGTEFTLTISSLQPEDFATYYCQQHNEYPITFGQGTKLEIK
notes: humanized antibody based on 81A1F8; also called 81A1F8-1121
B5: 81A1F8-VH-21/VL-21 (antibody, V domains shown)
VH: B4 VH with I76T, R85S, D89E
VL: B4 VL
notes: humanized antibody based on 81A1F8; also called 81A1F8-2121
B6: 81A1F8-VH-21/VL-41 (antibody, V domains shown)
VH: B4 VH with I76T, R85S, D89E
VL: B4 VL with F10T, E81D
notes: humanized antibody based on 81A1F8; also called 81A1F8-2141
B7: 81A1F8-VH-11/VL-41 (antibody, V domains shown)
VH: B4 VH
VL: B4 VL with F10T, E81D
notes: humanized antibody based on 81A1F8

Columns and labels:
human CD24 [1] = biological target: T1, human CD24; assay: FACS, 5637 cells
Experimental: (§1) Sequences of some of antibodies from Table 1 were selected to generate and produce human IgG4 chimeric antibodies. […] The protocol for FACs analysis is described as follows: [0536] a. Digested cells using TrypLE™ Express Enzyme (IX); Centrifuged the harvested cells at 400 g for 5 min and discarding the supernatant. [0537] b. Washed the cells 2 times with cold FACS buffer by centrifuging at 400 g for 5 min and discarding the supernatant. [0538] c. […] Incubate at […] for 1 h. [0539] d. Washed the cells twice by using the condition in step b. Resuspended the cells with 100 μl/well diluted 2nd antibody, incubated at 4 degree for 1 h in the dark. [0540] e. Washed the cells twice by using the condition in step b. Resuspended the cells with 100 μl/well cold FACS buffer. Kept the cells in dark for FACS analysis.

human CD24 [2] = biological target: T1, human CD24; assay: FACS, Nalm1 cells
Experimental: as §1

human CD24 [3] = biological target: T1, human CD24; assay: FACS, MDA-MB-468 cells
Experimental: as §1

human CD24 [4] = biological target: T1, human CD24; assay: cell-based or functional assay
human CD24 [5] = biological target: T1, human CD24; assay: FACS, Nalm1 cells
human CD24 [6] = biological target: T1, human CD24; assay: FACS, MDA-MB-468 cells
human CD24 [7] = biological target: T1, human CD24; assay: FACS, 293F-hCD24 cells
Experimental: as §1

human CD24 [8] = biological target: T1, human CD24; assay: FACS, HT-29 cells
Experimental: as §1

human CD24 [9] = biological target: T1, human CD24; assay: FACS, 5637 cells
Experimental: (§2) Screening & Expansion: The subcloning plates were screened by Acumen assay and the subclones with good binding ability were expanded to 24-wells for confirmation tests. The specificity and cross-reactivity of these subclones were confirmed with FACs analysis. […] Fluorescent dye-conjugated secondary antibody was used to detect the binding of the primary antibody with the cells. Median fluorescence intensity (MFI) was measured by FACs analysis.

human CD24 [10] = biological target: T1, human CD24; assay: FACS, H1975 cells
Experimental: as §2

human CD24 [11] = biological target: T1, human CD24; assay: FACS, MCF7 cells
human CD24 [12] = biological target: T1, human CD24; assay: FACS, CHOK1-hCD24 cells
Experimental: as §1

human CD24 [13] = biological target: T1, human CD24; assay: FACS, H1975 cells
Experimental: as §1

human CD24 [14] = biological target: T1, human CD24; assay: FACS, 5637 cells
human CD24 [15] = biological target: T1, human CD24; assay: FACS, MCF7 cells
Experimental: as §1

human CD24 [16] = biological target: T1, human CD24; assay: FACS, MCF7 cells
Experimental: as §2

human CD24 [17] = biological target: T1, human CD24; assay: FACS, 293F-hCD24 cells
Experimental: as §2

human CD24 [18] = biological target: T1, human CD24; assay: FACS, CHOK1-hCD24 cells
human CD24 [19] = biological target: T1, human CD24; assay: FACS, Nalm1 cells
Experimental: as §2

human CD24 [20] = biological target: T1, human CD24; assay: FACS, A549 cells
Experimental: as §1

human CD24 [21] = biological target: T1, human CD24; assay: FACS, 293F-hCD24 cells
human CD24 [22] = biological target: T1, human CD24; assay: flow cytometry, HT-29 and Nalm6 cells
Experimental: Briefly, HT-29 or Nalm6 cells were washed three times using PBS and firstly incubated with humanized variants. After three times washing, secondary antibody was incubated with cells. MFI of the samples was analyzed with Flow Cytometry and cells-based affinity was calculated.

| Binder | EC50 (human CD24 [1]) [nM] | EC50 (human CD24 [2]) [nM] | Max MFI (human CD24 [2]) | EC50 (human CD24 [3]) [nM] | FACS MFI (human CD24 [3]) | EC50 (human CD24 [7]) [nM] | Max MFI (human CD24 [7]) | EC50 (human CD24 [8]) [nM] | Max MFI (human CD24 [8]) | FACS MFI (human CD24 [9]) | FACS MFI (human CD24 [10]) | EC50 (human CD24 [12]) [nM] | Max MFI (human CD24 [12]) | EC50 (human CD24 [13]) [nM] | EC50 (human CD24 [15]) [nM] | FACS MFI (human CD24 [16]) | FACS MFI (human CD24 [17]) | FACS MFI (human CD24 [19]) | EC50 (human CD24 [20]) [nM] | binding result (human CD24 [22]) | other results |
| --- | --- | --- | --- | --- | --- | --- | --- | --- | --- | --- | --- | --- | --- | --- | --- | --- | --- | --- | --- | --- | --- |
| B1 | 2.7 | 3.43 | 48400 | 4.2 | 6690 | 3.25 | 34100 | 6.61 | 5900 | 9400 | 5210 | 3.63 | 29700 | 8.26 | 8 | 1080 | 6560 | 11800 | 3 | – | Max MFI (human CD24 [3]): 10800; EC50 (nM), phagocytosis against HT-29 cells (human CD24 [4]): 2.1 nM; Max phagocytosis Index (%), phagocytosis against HT-29 cells (human CD24 [4]): 68.2%; EC50 (human CD24 [5]): 5.08 nM; EC50 (human CD24 [6]): 7.37 nM; EC50 (human CD24 [11]): 6.54 nM; EC50 (human CD24 [14]): 5.74 nM; Max MFI (human CD24 [15]): 761; EC50 (human CD24 [18]): 8.67 nM; Max MFI (human CD24 [20]): 8820; EC50 (human CD24 [21]): 3.5 nM |
| B2 | 24.6 | 33.8 | 58500 | 28 | 6400 | 16.2 | 20100 | 40 | 4820 | 6360 | 2200 | 23.8 | 19900 | 31.3 | 45.9 | 373 | 20100 | 58500 | 36 | – | Max MFI (human CD24 [1]): 7440; Max MFI (human CD24 [20]): 5700 |
| B3 | 5.89 | 3.27 | 76200 | 12.2 | 52800 | 6.55 | 56500 | 2.92 | 5610 | 47100 | 24900 | 1.52 | 28900 | 5.22 | 5.2 | 21200 | 56500 | 76200 | 2.72 | – | Max MFI (human CD24 [20]): 18400 |
| B4 | – | – | – | – | – | – | – | – | – | – | – | – | – | – | – | – | – | – | – | binds | – |
| B5 | – | – | – | – | – | – | – | – | – | – | – | – | – | – | – | – | – | – | – | binds | – |
| B6 | – | – | – | – | – | – | – | – | – | – | – | – | – | – | – | – | – | – | – | binds | – |
| B7 | – | – | – | – | – | – | – | – | – | – | – | – | – | – | – | – | – | – | – | binds | – |
